The source of these data is publication PMC3510490 (Nucleic Acids Research, 2012).

The assay concerns the target T1, (H3–H4)2 tetramer (Xenopus laevis, UniProt P84233 1-136; P62799 1-103, H4 E63C, Alexa 488 maleimide on C63 (H4 E63C)).
T1 construct: Histone H3, Xenopus laevis; also called H3–H4 tetramer; H3–H4 complex; copies: 2 + 2
Kind of assay: other fluorescence titration; Arp constructs or sub-complex titrated (1 to 5000 nM) into fluorescently labelled histone complexes or nucleosomes kept at 0.5-1 nM, 40 µl in microplates; 20 mM Tris pH 7.5, 150 mM KCl, 5% glycerol, 1 mM TCEP, 0.01% CHAPS, 0.01% octylglucoside; room temperature, 20-30 min; apparent Kd and Hill coefficient from non-linear fit; quadruplicates. Particulars: both partners purified.

B1: Saccharomyces cerevisiae Arp8 (natural protein)
chain: MSQEEAESSIIYEEPIDIPLEDDDDEDELEEENSVPLSSQADQENAENESDDSVDNVVGSETPRSVTGLSVDPRDVADEEDEDEEGEDEDEDEDDNDVDNEDENDNDNANENENELGSSRDKRAPPAVQTSKRYKKYPKLDPAKAPPGKKVPLHLLEKRRLGRIKAAEEFAKTLKKIGIEKVETTTLPATGLFQPLMLINQKNYSSDYLKKDDQIFALRDRKFLRNNNTSQISSTNTPDVIDLKSLPHSEASAAPLNDEIDLNDPTATIVIHPGSNSIKIGFPKDDHPVVVPNCVAVPKKWLDLENSEHVENVCLQREQSEEFNNIKSEMEKNFRERMRYYKRKVPGNAHEQVVSFNENSKPEIISEKNDPSPIEWIFDDSKLYYGSDALRCVDEKFVIRKPFRGGSFNVKSPYYKSLAELISDVTKLLEHALNSETLNVKPTKFNQYKVVLVIPDIFKKSHVETFIRVLLTELQFQAVAIIQESLATCYGAGISTSTCVVNIGAAETRIACVDEGTVLEHSAITLDYGGDDITRLFALFLLQSDFPLQDWKIDSKHGWLLAERLKKNFTTFQDADVAVQLYNFMNRSPNQPTEKYEFKLFDEVMLAPLALFFPQIFKLIRTSSHKNSSLEFQLPESRDLFTNELNDWNSLSQFESKEGNLYCDLNDDLKILNRILDAHNIIDQLQDKPENYGNTLKENFAPLEKAIVQSIANASITADVTRMNSFYSNILIVGGSSKIPALDFILTDRINIWRPSLLSSASFPQFYKKLTKEIKDLEGHYVNAPDKTEDENKQILQAQIKEKIVEELEEQHQNIEHQNGNEHIFPVSIIPPPRDMNPALIIWKGASVLAQIKLVEELFITNSDWDVHGSRILQYKCIFTY
notes: Actin-related protein 8 (Arp8), S. cerevisiae; also called Sc Arp8; yeast Arp8
For the molecule B1, the Kd was found to be 485 nM.

B2: Saccharomyces cerevisiae Arp4 (natural protein)
chain: MSNAALQVYGGDEVSAVVIDPGSYTTNIGYSGSDFPQSILPSVYGKYTADEGNKKIFSEQSIGIPRKDYELKPIIENGLVIDWDTAQEQWQWALQNELYLNSNSGIPALLTEPVWNSTENRKKSLEVLLEGMQFEACYLAPTSTCVSFAAGRPNCLVVDIGHDTCSVSPIVDGMTLSKSTRRNFIAGKFINHLIKKALEPKEIIPLFAIKQRKPEFIKKTFDYEVDKSLYDYANNRGFFQECKETLCHICPTKTLEETKTELSSTAKRSIESPWNEEIVFDNETRYGFAEELFLPKEDDIPANWPRSNSGVVKTWRNDYVPLKRTKPSGVNKSDKKVTPTEEKEQEAVSKSTSPAANSADTPNETGKRPLEEEKPPKENNELIGLADLVYSSIMSSDVDLRATLAHNVVLTGGTSSIPGLSDRLMTELNKILPSLKFRILTTGHTIERQYQSWLGGSILTSLGTFHQLWVGKKEYEEVGVERLLNDRFR
notes: Actin-related protein 4 (Arp4), S. cerevisiae; also called Sc Arp4; yeast Arp4
For the molecule B2, the Kd is 74.3 nM.
